Laboratory results from article PMC8565330.

Target: GST-G3BP1 (human, UniProt Q13283 1-466)
Test: fluorescence anisotropy

Chain of GST-G3BP1 (Q13283 whole entry): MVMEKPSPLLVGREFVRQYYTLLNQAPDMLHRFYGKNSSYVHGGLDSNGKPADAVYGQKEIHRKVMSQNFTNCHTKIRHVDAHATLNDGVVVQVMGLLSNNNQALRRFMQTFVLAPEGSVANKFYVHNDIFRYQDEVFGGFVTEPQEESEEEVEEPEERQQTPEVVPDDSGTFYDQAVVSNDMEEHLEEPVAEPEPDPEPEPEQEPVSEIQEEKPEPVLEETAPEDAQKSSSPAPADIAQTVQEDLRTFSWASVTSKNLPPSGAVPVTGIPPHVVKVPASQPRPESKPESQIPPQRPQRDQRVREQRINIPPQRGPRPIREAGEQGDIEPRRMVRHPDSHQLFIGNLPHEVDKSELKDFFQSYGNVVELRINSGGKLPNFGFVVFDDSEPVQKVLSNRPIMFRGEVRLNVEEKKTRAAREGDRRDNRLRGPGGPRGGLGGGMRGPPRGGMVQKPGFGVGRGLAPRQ

Row | Binder | Kd
1 | GAGCGCGGAAGCGCGCGCGCGCGCGCGCGG (ssRNA) [PITX1 rM4] | 761 ± 73 nM
2 | GUGUAAAAGGGGCGGGUCUGGGUGCG (ssRNA) [NRAS rM4] | 266 ± 36 nM
